Data published in patent publication US20240317858A1 (Adimab, published 2024).

Key:
[1] = target: T1, Human CD3εδ Fc heterodimer (Hu CD3ε Fc + CD3δ Fc-HIS) (human, UniProt P07766 22-126; P04234 22-100); assay: SPR (Biacore), Fab over Hu CD3εδ-Fc; sensorgram inset tied by a line to the filled square (parent antibody) labelled A001; pH not given on the sheet
T1 construct: range 22-126;range 22-100; Made in HEK 293 cells with a heterologous signal peptide; also called Hu CD3εδ-Fc; CD3εδ Fc-HIS heterodimer; not shown: Fc; Fc followed by HIS tag

[2] = target: T1, Human CD3εδ Fc heterodimer (Hu CD3ε Fc …); assay: BLI (Octet), Fab monovalent, pH 7.4
Description: (§1) ForteBio KD measurements (Biolayer interferometry; BLI). ForteBio affinity measurements were performed generally as previously described (Estep, P., et al., High throughput solution-based measurement of antibody-antigen affinity and epitope binning. MAbs, 2013. 5(2): p. 270-8.). Briefly, ForteBio affinity measurements were performed by loading IgGs or CD3εδ Fe-HIS heterodimer onto AHC sensors. Sensors were equilibrated off-line in assay buffer for 30 min and then monitored on-line for 60 seconds for baseline establishment. Sensors with loaded IgGs were exposed to 100 nM antigen (e.g., CD3) for 3 min, afterwards they were transferred to assay buffer for 10 min for off-rate measurement. Sensors loaded with CD3εδ Fe-HIS heterodimer were exposed to 100 nM anti-CD3 Fab for 3 min, afterwards they were transferred to assay buffer for 3 min or 10 min for off-rate measurement. Kinetics were analyzed using the 1:1 binding model. For measuring binding at different pHs, measurements were performed at pre-determined pHs (e.g., pH 7.4 and pH 6.0).
(§2) Anti-CD3 antibodies A001-A005, V002, V004, V007, V009, V010, V013, and V014-V019 were produced as IgG1s in CHO cells, and Fab fragments were generated from IgG1 antibodies by papain digestion and purification as described in Example 2. Human, cynomolgus, rhesus, and mouse CD3εδ Fc heterodimers were produced, and monovalent binding affinity and avidity at pH 7.4 and pH 6.0 were measured using the Octet® HTX instrument (ForteBio) as described in Example 2.

[3] = target: T2, Cynomolgus CD3εδ Fc heterodimer (Cy CD3ε Fc + CD3δ Fc-HIS) (cynomolgus, UniProt Q95LI5 22-117; Q95LI8 22-100); assay: BLI (Octet), Fab monovalent, pH 7.4
T2 construct: range 22-117;range 22-100; Made in HEK 293 cells with a heterologous signal peptide; also called Cy CD3εδ-Fc; cyno CD3εδ Fc; not shown: Fc; Fc followed by HIS tag
Description: as §1, §2

[4] = target: T3, Rhesus CD3εδ Fc heterodimer (rhesus); assay: BLI (Octet), Fab monovalent, pH 7.4
T3 construct: extracellular domain; also called Rh CD3εδ-Fc
Description: as §1, §2

[5] = target: T1, Human CD3εδ Fc heterodimer (Hu CD3ε Fc …); assay: SPR (Biacore), Fab over immobilized CD3εδ Fc, pH 7.4
Description: (§3) Anti-CD3 antibodies A001-A005, V002, V004, V007, V009, V010, V013, and V014-V019 were produced in CHO cells, and Fab fragments were generated from IgG1 antibodies by papain digestion and purification as described in Example 2. Monovalent binding affinity at pH 7.4 and pH 6.0 was measured via surface plasmon resonance (SPR). Briefly, human or cynomolgus CD3εδ Fe heterodimer produced as described in Example 2 was immobilized to a CM5 sensor chip in a Biacore® X100 (Cytiva, previously GE Healthcare Life Sciences) to a response level of ˜500 RUs. Fabs were then injected at 3-fold increasing concentrations, ranging from 0.74-180 nM. The sensor chip was doubly regenerated between cycles using 0.35 M EDTA and 0.1 M NaOH. The resulting data were double reference subtracted and fit to a 1:1 binding model using Biacore® Evaluation Software.

[6] = target: T2, Cynomolgus CD3εδ Fc heterodimer (Cy …); assay: as above
Description: as §3

[7] = target: T1, Human CD3εδ Fc heterodimer (Hu CD3ε Fc …); assay: SPR (Biacore), Fab over immobilized CD3εδ Fc, pH 6.0
Description: as §3

[8] = target: T2, Cynomolgus CD3εδ Fc heterodimer (Cy …); assay: as above
Description: as §3

[9] = target: T1, Human CD3εδ Fc heterodimer (Hu CD3ε Fc …); assay: BLI (Octet), CD3εδ Fc on AHC sensor, 100 nM Fab
Description: (§4) Affinity of the anti-CD3 antibodies for CD3 was determined by measuring their kinetic constants (kₒₙ, koff, KD) on ForteBio Octet®. ForteBio affinity measurements were performed generally as previously described (Estep et al., MAbs. 2013 5(2):270-8). […] Sensors were equilibrated off-line in assay buffer for 30 minutes and then monitored on-line for 60 seconds for baseline establishment. For monovalent binding measurement, sensors with loaded CD3εδ Fc were exposed to 100 nM anti-CD3 Fab, as further described in Example 2 below] for 3 minutes, afterwards they were transferred to assay buffer for 3 minutes for off-rate measurement. Kinetics data were fit using a 1:1 binding model in the data analysis software provided by ForteBio.

[10] = target: T2, Cynomolgus CD3εδ Fc heterodimer (Cy …); assay: BLI (Octet), CD3εδ Fc on AHC sensor, 100 nM Fab
Description: as §4

[11] = target: T1, Human CD3εδ Fc heterodimer (Hu CD3ε Fc …); assay: BLI (Octet), Fab monovalent, pH 6.0
Description: as §1, §2

[12] = target: T2, Cynomolgus CD3εδ Fc heterodimer (Cy …); assay: BLI (Octet), Fab monovalent, pH 6.0
Description: as §1, §2

[13] = target: T1, Human CD3εδ Fc heterodimer (Hu CD3ε Fc …); assay: SPR (Biacore), Fab over Hu CD3εδ-Fc; sensorgram inset labelled V007, tied by a line to an open square (PSR-optimized antibody); pH not given on the sheet
[14] = target: T1, Human CD3εδ Fc heterodimer (Hu CD3ε Fc …); assay: SPR (Biacore), Fab over Hu CD3εδ-Fc; sensorgram inset labelled V013, tied by a line to an open square (PSR-optimized antibody); pH not given on the sheet
[15] = target: T4, Human CD3 on CD3+ Jurkat cells (human, UniProt P07766 23-207); assay: flow cytometry, Fab titration
T4 construct: whole, on cells; Target is the endogenous CD3 complex on cells; also called Human CD3+ Jurkat cells
Description: Further FACS analysis was conducted using 3-fold serial dilutions of anti-CD3 antibody Fab fragments. Fab fragments were generated from whole IgG antibodies by papain digestion and purified over KappaSelect or CaptureSelect IgG-CH1 (GE Healthcare LifeSciences) before preparation of serial dilutions. Binding to human CD3+ Jurkat cells and Cynomolgus monkey CD3 HSC-F cells was assessed with each diluted sample and results were used to build a titration curve and calculate half maximal effective concentration (EC50) values for Fab binding.

[16] = target: T1, Human CD3εδ Fc heterodimer (Hu CD3ε Fc …); assay: SPR (Biacore), Fab over Hu CD3εδ-Fc; sensorgram inset tied by a line to the filled square (parent antibody) labelled A002; pH not given on the sheet

T1 sequence (P07766 22-126, stated change not applied, form in doubt, chain 1 of 2): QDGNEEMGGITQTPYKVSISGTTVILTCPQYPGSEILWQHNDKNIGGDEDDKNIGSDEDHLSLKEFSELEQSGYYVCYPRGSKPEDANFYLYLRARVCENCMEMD
T1 sequence (P04234 22-100, stated change not applied, form in doubt, chain 2 of 2): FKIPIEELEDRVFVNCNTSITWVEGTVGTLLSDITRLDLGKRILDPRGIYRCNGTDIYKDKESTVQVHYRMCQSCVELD
T2 sequence (Q95LI5 22-117, stated change not applied, form in doubt, chain 1 of 2): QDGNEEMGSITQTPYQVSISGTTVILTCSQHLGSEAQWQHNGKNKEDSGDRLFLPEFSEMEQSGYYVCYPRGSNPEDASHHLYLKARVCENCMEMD
T2 sequence (Q95LI8 22-100, stated change not applied, form in doubt, chain 2 of 2): as the sequence (P04234 22-100, stated change not applied, form in doubt, chain 2 of 2) above, with I5V, N15K, I20V, S32T, D33N, I34N, T64A, S74N counted along it
T4 sequence (P07766 23-207): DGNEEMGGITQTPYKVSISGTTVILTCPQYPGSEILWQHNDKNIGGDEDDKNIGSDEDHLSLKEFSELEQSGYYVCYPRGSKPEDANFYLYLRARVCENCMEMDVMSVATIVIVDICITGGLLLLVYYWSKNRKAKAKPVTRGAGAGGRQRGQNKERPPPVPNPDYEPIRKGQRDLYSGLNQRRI

| Kd [1] [nM] | Kd [2] [nM] | Kd [3] [nM] | Kd [4] [nM] | Kd [5] [nM] | Kd [6] [nM] | Kd [7] [nM] | Kd [8] [nM] | Kd [9] [nM] | Kd [10] [nM] | Kd [11] [nM] | Kd [12] [nM] | Kd [13] [nM] | Kd [14] [nM] | EC50 [15] [nM] | Kd [16] [nM] | Binder |
| --- | --- | --- | --- | --- | --- | --- | --- | --- | --- | --- | --- | --- | --- | --- | --- | --- |
| 2 | 6 | 5.9 | 6.1 | 1.1 | 1.1 | 1.3 | 1.9 | 2.81 | 2.9 | 5.8 | 5.9 |  |  |  |  | Antibody No. A001 (ADI-26906) Fab (Fab, V domains shown, Fab by papain digestion of the IgG1) VH: QVQLVQSGAEVKKPGASVKVSCKASGFNIKDYYMHWVRQAPGQRLEWMGWIDLENANTIYDAKFQGRVTITRDTSASTAYMELSSLRSEDTAVYYCARDAYGRYFYDVWGQGTLVTVSS VL: DIVMTQSPDSLAVSLGERATINCKSSQSLLNARTGKNYLAWYQQKPGQPPKLLIYWASTRESGVPDRFSGSGSGTDFTLTISSLQAEDVAVYYCKQSYSRRTFGGGTKVEIK |
|  | 7.4 | 8.7 | 9.2 | 4 | 2.7 | 2.8 | 2.1 | 5.39 | 5.03 | 6.9 | 6.9 | 3.7 |  |  |  | Antibody No. V007 (ADI-67450) Fab (Fab, V domains shown, Fab by papain digestion of the IgG1) VH: QVQLVQSGAEVKKPGASVKVSCKASGFNIDDYYMHWVRQAPGQRLEWMGWIDLENANTIDDAKFQGRVTITRDTSASTAYMELSSLRSEDTAVYYCARDAYGRYFYDVWGQGTLVTVSS VL: DIVMTQSPDSLAVSLGERATINCKSSQSLLNARTGKNYLAWYQQKPGQPPKLLIYWASTRESGVPDRFSGSGSGTDFTLTISSLQAEDVAVYYCKQSYSRRTFGGGTKVEIK |
|  | 2.4 | 2.4 | 2.5 | 0.18 | 0.22 | 1.6 | 0.27 | 1.16 | 1.23 | 1.6 | 1.9 |  | 0.681 |  |  | Antibody No. V013 (ADI-70330) Fab (Fab, V domains shown, Fab by papain digestion of the IgG1) VH: QVQLVQSGAEVKKPGASVKVSCKASGFNIDDYYMHWVRQAPGQRLEWIGWIDLENANTVDDAKFQGRVTITRDTSASTAYMELSSLRSEDTAVYYCARDAYGRYFYDVWGQGTLVTVSS VL: DIVMSQSPDSLAVSLGERATINCKSSQSLLNARTGKNYLAWYQQKPGQPPKLLIYWASTRSSGVPDRFSGSGSGTDFTLTISSLQAEDVAVYYCVQSYFRRTFGGGTKVEIK |
|  |  |  |  |  |  |  |  | 0.82 | 0.86 |  |  |  |  | 2.77 |  | Antibody No. V011 (ADI-70328) Fab (Fab, V domains shown, Fab by papain digestion of the IgG1) VH: QVQLVQSGAEVKKPGASVKVSCKASGFNIDDYYMHWVRQAPGQRLEWIGWIDLENDNTVYDAKFQGRVTITRDTSASTAYMELSSLRSEDTAVYYCARDAYGRYFYDVWGQGTLVTVSS VL: DIVMSQSPDSLAVSLGERATINCKSSQSLLNARTGKNYLAWYQQKPGQPPKLLIYWASTRSSGVPDRFSGSGSGTDFTLTISSLQAEDVAVYYCVQSYFRRTFGGGTKVEIK |
|  | 1 | 1.3 | 1.2 | 0.059 | 0.076 | 0.31 | 0.2 | 0.5 | 0.57 | 1.3 | 1.7 |  |  |  | 0.244 | Antibody No. A002 (ADI-50024) Fab (Fab, V domains shown, Fab by papain digestion of the IgG1) VH: QVQLVQSGAEVKKPGASVKVSCKASGFNIKDYYMHWVRQAPGQRLEWIGWIDLENANTVYDAKFQGRVTITRDTSASTAYMELSSLRSEDTAVYYCARDAYGRYFYDVWGQGTLVTVSS VL: DIVMSQSPDSLAVSLGERATINCKSSQSLLNARTGKNYLAWYQQKPGQPPKLLIYWASTRSSGVPDRFSGSGSGTDFTLTISSLQAEDVAVYYCVQSYFRRTFGGGTKVEIK |
